“And” between values parts separate entries of the source, which are not always exact repeats. Equal entries are not always repeated.
Legend:
[1] = molecular target: FHCS-2 (RSV strain A2) (UniProt P03420); test: ELISA; F coated 1250 ng/ml; stored -80° C.
[2] = molecular target: FHCS-1 (RSV strain A2) (UniProt P03420); test: ELISA; F coated 1250 ng/ml; stored -80° C.
[3] = molecular target: FHCS-4 (RSV strain A2) (UniProt P03420); test: ELISA; F coated 1250 ng/ml; stored -80° C.
[4] = molecular target: FHCS-2 (RSV strain A2) (UniProt P03420); test: ELISA; F coated 2500 ng/ml; stored 37° C. 4 W
[5] = molecular target: FHCS-1 (RSV strain A2) (UniProt P03420); test: ELISA; F coated 2500 ng/ml; stored 37° C. 4 W
[6] = molecular target: FHCS-4 (RSV strain A2) (UniProt P03420); test: ELISA; F coated 2500 ng/ml; stored 37° C. 4 W
[7] = molecular target: FHCS-2 (RSV strain A2) (UniProt P03420); test: ELISA; F coated 312.5 ng/ml; stored 37° C. 4 W
[8] = molecular target: FHCS-1 (RSV strain A2) (UniProt P03420); test: ELISA; F coated 312.5 ng/ml; stored 37° C. 4 W
[9] = molecular target: FHCS-4 (RSV strain A2) (UniProt P03420); test: ELISA; F coated 312.5 ng/ml; stored 37° C. 4 W
[10] = molecular target: FHCS-2 (RSV strain A2) (UniProt P03420); test: ELISA; F coated 1250 ng/ml; stored 37° C. 4 W
[11] = molecular target: FHCS-1 (RSV strain A2) (UniProt P03420); test: ELISA; F coated 1250 ng/ml; stored 37° C. 4 W
[12] = molecular target: FHCS-4 (RSV strain A2) (UniProt P03420); test: ELISA; F coated 1250 ng/ml; stored 37° C. 4 W
[13] = molecular target: FHS-31 (RSV strain A2) (UniProt P03420); test: sandwich ELISA, AM14 coated, supernatant 1:10
[14] = molecular target: FHS-60 (RSV strain A2) (UniProt P03420); test: sandwich ELISA, AM14 coated, supernatant 1:10
[15] = molecular target: FHS-35 (RSV strain A2) (UniProt P03420); test: sandwich ELISA, AM14 coated, supernatant 1:10
[16] = molecular target: FHS-53 (RSV strain A2) (UniProt P03420); test: sandwich ELISA, AM14 coated, supernatant 1:10
[17] = molecular target: FHS-19 (RSV strain A2) (UniProt P03420); test: sandwich ELISA, AM14 coated, supernatant 1:10
[18] = molecular target: FHS-65 (RSV strain A2) (UniProt P03420); test: sandwich ELISA, AM14 coated, supernatant 1:10
[19] = molecular target: FHM-1 (RSV strain A2) (UniProt P03420); test: sandwich ELISA, AM14 coated, supernatant 1:10
[20] = molecular target: FHM-22 (RSV strain A2) (UniProt P03420); test: sandwich ELISA, AM14 coated, supernatant 1:10
[21] = molecular target: FHS-48 (RSV strain A2) (UniProt P03420); test: sandwich ELISA, AM14 coated, supernatant 1:10
[22] = molecular target: FHS-74 (RSV strain A2) (UniProt P03420); test: sandwich ELISA, AM14 coated, supernatant 1:10
[23] = molecular target: FHS-7 (RSV strain A2) (UniProt P03420); test: sandwich ELISA, AM14 coated, supernatant 1:10
[24] = molecular target: FHS-94 (RSV strain A2) (UniProt P03420); test: sandwich ELISA, AM14 coated, supernatant 1:10
[25] = molecular target: FHCS-2 (RSV strain A2) (UniProt P03420); test: ELISA; F coated 625 ng/ml; stored 37° C. 4 W
[26] = molecular target: FHCS-1 (RSV strain A2) (UniProt P03420); test: ELISA; F coated 625 ng/ml; stored 37° C. 4 W
[27] = molecular target: FHCS-4 (RSV strain A2) (UniProt P03420); test: ELISA; F coated 625 ng/ml; stored 37° C. 4 W
[28] = molecular target: FHCS-2 (RSV strain A2) (UniProt P03420); test: ELISA; F coated 312.5 ng/ml; stored -80° C.
[29] = molecular target: FHCS-4 (RSV strain A2) (UniProt P03420); test: ELISA; F coated 312.5 ng/ml; stored -80° C.
[30] = molecular target: FHCS-2 (RSV strain A2) (UniProt P03420); test: ELISA; F coated 625 ng/ml; stored -80° C.
[31] = molecular target: FHCS-1 (RSV strain A2) (UniProt P03420); test: ELISA; F coated 625 ng/ml; stored -80° C.
[32] = molecular target: FHCS-4 (RSV strain A2) (UniProt P03420); test: ELISA; F coated 625 ng/ml; stored -80° C.
[33] = molecular target: FHCS-2 (RSV strain A2) (UniProt P03420); test: ELISA; F coated 2500 ng/ml; stored -80° C.
[34] = molecular target: FHCS-1 (RSV strain A2) (UniProt P03420); test: ELISA; F coated 2500 ng/ml; stored -80° C.
[35] = molecular target: FHCS-4 (RSV strain A2) (UniProt P03420); test: ELISA; F coated 2500 ng/ml; stored -80° C.
[36] = molecular target: FHCS-2 (RSV strain A2) (UniProt P03420); test: ELISA; F coated 2500 ng/ml; stored -80° C.; remark: listed apart in the source
[37] = molecular target: FHCS-1 (RSV strain A2) (UniProt P03420); test: ELISA; F coated 2500 ng/ml; stored -80° C.; remark: listed apart in the source
[38] = molecular target: FHCS-4 (RSV strain A2) (UniProt P03420); test: ELISA; F coated 2500 ng/ml; stored -80° C.; remark: listed apart in the source

Substance	OD value [1]	OD value [2]	OD value [3]	OD value [4]	OD value [5]	OD value [6]	OD value [7]	OD value [8]	OD value [9]	OD value [10]	OD value [11]	OD value [12]	OD value [25]	OD value [26]	OD value [27]	OD value [28]	OD value [29]	OD value [30]	OD value [31]	OD value [32]	other results
AM14 monoclonal antibody	0.009 OD and 0.013 OD	0.006 OD	0.013 OD and 0.011 OD	0.45 OD and 0.185 OD	0.109 OD and 0.096 OD	0.045 OD and 0.019 OD	0.005 OD	0.005 OD	0.004 OD and 0.007 OD	0.025 OD and 0.019 OD	0.018 OD and 0.024 OD	0.007 OD and 0.008 OD	0.005 OD and 0.006 OD	0.006 OD and 0.008 OD	0.006 OD and 0.007 OD	0.005 OD	0.004 OD and 0.007 OD	0.005 OD and 0.006 OD	0.003 OD and 0.005 OD	0.007 OD	OD value [13]: 0.007 OD; OD value [14]: 0.007 OD; OD value [15]: 0.007 OD; OD value [16]: 0.008 OD; OD value [17]: 0.007 OD; OD value [18]: 1.73 OD; OD value [19]: 2.29 OD; OD value [20]: 1.98 OD; OD value [21]: 2.42 OD; OD value [22]: 0.023 OD; OD value [23]: 0.011 OD; OD value [24]: 0.009 OD; OD value [33]: 0.02 OD and 0.024 OD; OD value [34]: 0.021 OD and 0.03 OD; OD value [35]: 0.04 OD and 0.028 OD
Synagis® (antibody)	0.572 OD and 0.767 OD	0.357 OD and 0.35 OD	0.252 OD and 0.209 OD	1.82 OD and 1.84 OD	1.91 OD and 2.11 OD	1.8 OD and 1.78 OD	0.154 OD and 0.143 OD	0.142 OD and 0.168 OD	0.138 OD and 0.12 OD	0.995 OD and 0.91 OD	1.17 OD and 1.22 OD	1.05 OD and 0.985 OD	0.42 OD and 0.4 OD	0.324 OD and 0.612 OD	0.378 OD and 0.389 OD	0.089 OD and 0.108 OD	0.052 OD and 0.033 OD	0.209 OD and 0.208 OD	0.17 OD and 0.181 OD	0.094 OD and 0.066 OD	OD value [36]: 1.78 OD and 1.8 OD; OD value [37]: 1.5 OD and 1.61 OD; OD value [38]: 0.947 OD and 0.991 OD; OD value [33]: 1.65 OD and 1.91 OD; OD value [34]: 1.35 OD; OD value [35]: 0.825 OD and 0.743 OD

Source: patent publication US20260117202A1
